Assay [1] deals with RSV-F (amino acids 1-529), (Extracellular Domain) protein (His tag), ABIN2006856 (respiratory syncytial virus) (UniProt P03420). Briefly: ELISA, RSV F coated, read on SpectroMax. Background: ELISA stands for enzyme-linked immunosorbent assay.
The target in assay [2] is Influenza A H5N1 virus (IAV H5N1) (target of the Octet assay of Example 18; protein not specified) (Influenza A H5N1 virus). Kind of assay: BLI (Octet Red 96), binding affinity to IAV H5N1. For orientation: Biolayer interferometry detects binding as a change in optical thickness at a sensor tip.
For assay [3], the target named is RSV-F (amino acids 1-529), (Extracellular Domain) protein (His tag), ABIN2006856 (respiratory syncytial virus) (UniProt P03420). Briefly: ELISA, RSV F coated, read on Varioskan plate reader.
Assay [4] shares this target. Briefly: ELISA, RSV F coated, anti-human IgG-HRP.
In assay [5] the target is SARS-CoV-2 (antigen of the ELISA of Example 17; protein not specified) (SARS-CoV-2). Kind of assay: ELISA by the method of Example 15, SARS-CoV-2 antigen.
The target in assay [6] is Recombinant RSV F protein (Octet assays of Examples 14 and 16) (respiratory syncytial virus, UniProt P03420 26-529).

Where only a bound is given, the exact number is not on record here.

Here are results for 13 molecules from patent US20230312684A1 (PINETREE THERAPEUTICS, published 2023).

One may read the EC50 as the concentration at which the effect is half-maximal. A higher EC50 goes with lower potency in that assay. What is called Kd is a measure of binding affinity in units of concentration.

With “SEQ ID NO: 113, b1-Fc (NRP1, WT, single b1) (Fc fusion)”, the results for the EC50 in assay [1] and in assay [3] were 323 nM and 372 nM, respectively. The same molecule returned a Kd in assay [2] of 18.9 nM.

Take “SEQ ID NO: 121, b1b1-b1b1-Fc (NRP1, WT, quadruple b1) (Fc fusion)”: the EC50 in assay [1] worked out at 5.9 nM; in assay [3] it was 5.65 nM. Further, the Kd in assay [2] was 0.00782 nM.

Consider “SEQ ID NO: 122, b1b2-Fc (NRP1, WT, single b1b2) (Fc fusion)”, for which the 50% effective concentration (EC50) in assay [4] turned out to be 23.3 nM; in assay [5] it was 3.09 nM. In addition, the Kd in assay [2] was 17.5 nM.

On to “SEQ ID NO: 138, b1b2-b1b2-Fc (NRP1, WT, double b1b2) (Fc fusion)”, for which, in assay [5], the concentration giving a half-maximal response (EC50) is 110 nM.

Take “SEQ ID NO: 154, b1b2-Fc (NRP2, WT, single b1b2) (Fc fusion)”: the EC50 in assay [4] was 185 nM.

For “SEQ ID NO: 191, b1b2-Fc (NRP1, WT) (Fc fusion)”, the EC50 was 95.7 nM in assay [1] and 91 nM in assay [3].

On to “SEQ ID NO: 192, b1b2-Fc-ACE2-1 (NRP1 b1b2 at the N-terminus, alpha domain of ACE2 at the C-terminus) (Fc fusion)”, for which the concentration giving a half-maximal response (EC50) in assay [4] was 53.9 nM.

In assay [4], “SEQ ID NO: 203, b1b2-Fc-ACE2 (NRP1, WT, ACE2 alpha domain) (Fc fusion)” had a 50% effective concentration (EC50) of 69.7 nM.

With “SEQ ID NO: 205, b1b2-Fc-ACE2 (NRP1, WT, repeated ACE2 alpha domain) (Fc fusion)”, the EC50 in assay [4] is 39.2 nM.

“SEQ ID NO: 206, Nrp1(b1)/Nrp2(b2)-Fc (WT) (Fc fusion)” showed a 50% effective concentration (EC50) in assay [4] of 22.7 nM.

Take “SEQ ID NO: 207, Nrp2(b1)/Nrp1(b2)-Fc (WT) (Fc fusion)”: the half-maximal effective concentration (EC50) in assay [4] was determined as 17.1 nM.

B1: SEQ ID NO: 113, b1-Fc (NRP1, WT, single b1) (Fc fusion)
chain: EDFKCMEALGMESGEIHSDQITASSQYSTNWSAERSRLNYPENGWTPGEDSYREWIQVDLGLLRFVTAVGTQGAISKETKKKYYVKTYKIDVSSNGEDWITIKEGNKPVLFQGNTNPTDVVVAVFPKPLITRFVRIKPATWETGISMRFEVYGCGGGGSGGGGSEPKSCDKTHTCPPCPAPELLGGPSVFLFPPKPKDTLMISRTPEVTCVVVDVSHEDPEVKFNWYVDGVEVHNAKTKPREEQYNSTYRVVSVLAVLHQDWLNGKEYKCKVSNKALPAPIEKTISKAKGQPREPQVYTLPPSRDELTKNQVSLTCLVKGFYPSDIAVAWESNGQPENNYKTTPPVLDSDGSFFLYSKLTVDKSRWQQGNVFSCSVMHEALHAHYTQKSLSLSPGK
As for B1, the dissociation constant Kd in assay [6] is less than 1 nM.

B2: SEQ ID NO: 121, b1b1-b1b1-Fc (NRP1, WT, quadruple b1) (Fc fusion)
chain: EDFKCMEALGMESGEIHSDQITASSQYSTNWSAERSRLNYPENGWTPGEDSYREWIQVDLGLLRFVTAVGTQGAISKETKKKYYVKTYKIDVSSNGEDWITIKEGNKPVLFQGNTNPTDVVVAVFPKPLITRFVRIKPATWETGISMRFEVYGCKITDYPCMEALGMESGEIHSDQITASSQYSTNWSAERSRLNYPENGWTPGEDSYREWIQVDLGLLRFVTAVGTQGAISKETKKKYYVKTYKIDVSSNGEDWITIKEGNKPVLFQGNTNPTDVVVAVFPKPLITRFVRIKPATWETGISMRFEVYGCGGGGSGGGGSCMEALGMESGEIHSDQITASSQYSTNWSAERSRLNYPENGWTPGEDSYREWIQVDLGLLRFVTAVGTQGAISKETKKKYYVKTYKIDVSSNGEDWITIKEGNKPVLFQGNTNPTDVVVAVFPKPLITRFVRIKPATWETGISMRFEVYGCKITDYPCMEALGMESGEIHSDQITASSQYSTNWSAERSRLNYPENGWTPGEDSYREWIQVDLGLLRFVTAVGTQGAISKETKKKYYVKTYKIDVSSNGEDWITIKEGNKPVLFQGNTNPTDVVVAVFPKPLITRFVRIKPATWETGISMRFEVYGCGGGGSGGGGSEPKSCDKTHTCPPCPAPELLGGPSVFLFPPKPKDTLMISRTPEVTCVVVDVSHEDPEVKFNWYVDGVEVHNAKTKPREEQYNSTYRVVSVLAVLHQDWLNGKEYKCKVSNKALPAPIEKTISKAKGQPREPQVYTLPPSRDELTKNQVSLTCLVKGFYPSDIAVAWESNGQPENNYKTTPPVLDSDGSFFLYSKLTVDKSRWQQGNVFSCSVMHEALHAHYTQKSLSLSPGK
Turning to B2, the Kd in assay [6] is less than 1 nM.
